For the test, the target named is T1, dipeptidylpeptidase IV (DPPIV) expressed on rat proximal tubular epithelial cells (PTEC) (rat, UniProt P14740 1-767).
T1 construct: whole, on cells; also called K9/9 antigen; glycoprotein expressed on rat glomerular epithelial cells and PTEC
The experiment in a line: in vivo biodistribution of 125I-labelled protein in rats, 48 h after tail vein injection.

T1 sequence (P14740 whole entry): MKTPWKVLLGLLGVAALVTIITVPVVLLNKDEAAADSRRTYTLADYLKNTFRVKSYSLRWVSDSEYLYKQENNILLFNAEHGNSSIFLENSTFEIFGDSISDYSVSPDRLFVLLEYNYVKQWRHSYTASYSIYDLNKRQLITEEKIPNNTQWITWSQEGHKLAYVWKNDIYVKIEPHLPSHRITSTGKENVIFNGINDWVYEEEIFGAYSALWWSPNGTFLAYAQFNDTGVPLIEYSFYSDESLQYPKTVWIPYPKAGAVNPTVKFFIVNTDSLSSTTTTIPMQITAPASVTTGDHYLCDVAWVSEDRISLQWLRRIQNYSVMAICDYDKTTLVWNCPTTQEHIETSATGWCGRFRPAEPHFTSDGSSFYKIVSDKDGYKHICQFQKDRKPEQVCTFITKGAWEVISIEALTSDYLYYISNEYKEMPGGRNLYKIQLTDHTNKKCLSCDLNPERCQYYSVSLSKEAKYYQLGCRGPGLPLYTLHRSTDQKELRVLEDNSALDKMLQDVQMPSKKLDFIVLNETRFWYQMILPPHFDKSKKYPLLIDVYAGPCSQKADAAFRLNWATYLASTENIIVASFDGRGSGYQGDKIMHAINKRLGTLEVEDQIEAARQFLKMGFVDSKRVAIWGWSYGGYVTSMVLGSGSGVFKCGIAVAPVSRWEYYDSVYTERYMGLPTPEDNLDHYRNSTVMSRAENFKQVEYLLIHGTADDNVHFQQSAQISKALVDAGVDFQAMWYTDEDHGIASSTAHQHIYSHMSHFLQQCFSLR
Procedure: Biodistribution studies were performed using standard procedures for determining tissue distribution of injected radiolabeled proteins (41, 33). […] After 48 h, a blood sample was taken, and major organs were removed, shredded, washed in PBS containing 10 mM EDTA, weighed, and counted. Targeting specificity was determined as percentage of cpm per gram of tissue divided by total injected cpm per gram of body weight.

B1: soluble untargeted Crry (sCrry) (other, rat, UniProt Q63135 36-482, looked up)
chain: GQCPAPPLFPYAKPINPTDESTFPVGTSLKYECRPGYIKRQFSITCEVNSVWTSPQDVCIRKQCETPLDPQNGIVHVNTDIRFGSSITYTCNEGYRLIGSSSAMCIISDQSVAWDAEAPICESIPCEIPPSIPNGDFFSPNREDFHYGMVVTYQCNTDARGKKLFNLVGEPSIHCTSIDGQVGVWSGPPPQCIELNKCTPPHVENAVIVSKNKSLFSLRDMVEFRCQDGFMMKGDSSVYCRSLNRWEPQLPSCFKVKSCGAFLGELPNGHVFVPQNLQLGAKVTFVCNTGYQLKGNSSSHCVLDGVESIWNSSVPVCEQVICKLPQDMSGFQKGLQMKKDYYYGDNVALECEDGYTLEGSSQSQCQSDASWDPPLPKCVSQVICKLPQDMSGFQKGLQMKKDYYYGDNVALECEDGYTLEGSSQSQCQSDASWDPPLPKCVSRSNSG
modifications: 125I-iodinated in the biodistribution study
notes: extracellular domain; Untargeted control, expressed in Pichia; also called soluble Crry
On to B1, for which the binding result is “no binding”.

For the origin of these results see patent US20050265995A1 (MUSC FOUNDATION FOR RESEARCH DEVELOPMENT, published 2005).
